Results on one protein are retold here after paper PMC3699407 (Nature biotechnology, 2012).

This series concerns the molecule itself. Kind of series: SEC.

B1: wild-type pea cytosolic ascorbate peroxidase (APX) (enzyme)
chain: GKSYPTVSPDYQKAIEKAKRKLRGFIAEKKCAPLILRLAWHSAGTFDSKTKTGGPFGTIKHQAELAHGANNGLDIAVRLLEPIKEQFPIVSYADFYQLAGVVAVEITGGPEVPFHPGREDKPEPPPEGRLPDATKGSDHLRDVFGKAMGLSDQDIVALSGGHTIGAAHKERSGFEGPWTSNPLIFDNSYFTELLTGEKDGLLQLPSDKALLTDSVFRPLVEKYAADEDVFFADYAEAHLKLSELGFAEA
In the case of B1, the “stoichiometry N” value is 2.

A word on the stoichiometry N: it is a count of units in the complex or per binding partner.
